Assay [1] concerns the target wild-type αVβ3 stably expressed in K562 cells (K562-αVβ3) (human) (UniProt P06756). The experiment in a line: flow cytometry on cells. For orientation: In flow cytometry, cells or beads pass a laser one at a time.
In assay [2] the target is αVβ3(N339S) transiently expressed on HEK293T cells (human) (UniProt P06756). The assay is described as follows: flow cytometry on cells.
For assay [3] the target is unchanged.

Here are results for one substance from publication PMC4012256.

10th type III RGD-domain of wild-type fibronectin (wtFN10) (domain or fragment), sequence (P02751 45-2432): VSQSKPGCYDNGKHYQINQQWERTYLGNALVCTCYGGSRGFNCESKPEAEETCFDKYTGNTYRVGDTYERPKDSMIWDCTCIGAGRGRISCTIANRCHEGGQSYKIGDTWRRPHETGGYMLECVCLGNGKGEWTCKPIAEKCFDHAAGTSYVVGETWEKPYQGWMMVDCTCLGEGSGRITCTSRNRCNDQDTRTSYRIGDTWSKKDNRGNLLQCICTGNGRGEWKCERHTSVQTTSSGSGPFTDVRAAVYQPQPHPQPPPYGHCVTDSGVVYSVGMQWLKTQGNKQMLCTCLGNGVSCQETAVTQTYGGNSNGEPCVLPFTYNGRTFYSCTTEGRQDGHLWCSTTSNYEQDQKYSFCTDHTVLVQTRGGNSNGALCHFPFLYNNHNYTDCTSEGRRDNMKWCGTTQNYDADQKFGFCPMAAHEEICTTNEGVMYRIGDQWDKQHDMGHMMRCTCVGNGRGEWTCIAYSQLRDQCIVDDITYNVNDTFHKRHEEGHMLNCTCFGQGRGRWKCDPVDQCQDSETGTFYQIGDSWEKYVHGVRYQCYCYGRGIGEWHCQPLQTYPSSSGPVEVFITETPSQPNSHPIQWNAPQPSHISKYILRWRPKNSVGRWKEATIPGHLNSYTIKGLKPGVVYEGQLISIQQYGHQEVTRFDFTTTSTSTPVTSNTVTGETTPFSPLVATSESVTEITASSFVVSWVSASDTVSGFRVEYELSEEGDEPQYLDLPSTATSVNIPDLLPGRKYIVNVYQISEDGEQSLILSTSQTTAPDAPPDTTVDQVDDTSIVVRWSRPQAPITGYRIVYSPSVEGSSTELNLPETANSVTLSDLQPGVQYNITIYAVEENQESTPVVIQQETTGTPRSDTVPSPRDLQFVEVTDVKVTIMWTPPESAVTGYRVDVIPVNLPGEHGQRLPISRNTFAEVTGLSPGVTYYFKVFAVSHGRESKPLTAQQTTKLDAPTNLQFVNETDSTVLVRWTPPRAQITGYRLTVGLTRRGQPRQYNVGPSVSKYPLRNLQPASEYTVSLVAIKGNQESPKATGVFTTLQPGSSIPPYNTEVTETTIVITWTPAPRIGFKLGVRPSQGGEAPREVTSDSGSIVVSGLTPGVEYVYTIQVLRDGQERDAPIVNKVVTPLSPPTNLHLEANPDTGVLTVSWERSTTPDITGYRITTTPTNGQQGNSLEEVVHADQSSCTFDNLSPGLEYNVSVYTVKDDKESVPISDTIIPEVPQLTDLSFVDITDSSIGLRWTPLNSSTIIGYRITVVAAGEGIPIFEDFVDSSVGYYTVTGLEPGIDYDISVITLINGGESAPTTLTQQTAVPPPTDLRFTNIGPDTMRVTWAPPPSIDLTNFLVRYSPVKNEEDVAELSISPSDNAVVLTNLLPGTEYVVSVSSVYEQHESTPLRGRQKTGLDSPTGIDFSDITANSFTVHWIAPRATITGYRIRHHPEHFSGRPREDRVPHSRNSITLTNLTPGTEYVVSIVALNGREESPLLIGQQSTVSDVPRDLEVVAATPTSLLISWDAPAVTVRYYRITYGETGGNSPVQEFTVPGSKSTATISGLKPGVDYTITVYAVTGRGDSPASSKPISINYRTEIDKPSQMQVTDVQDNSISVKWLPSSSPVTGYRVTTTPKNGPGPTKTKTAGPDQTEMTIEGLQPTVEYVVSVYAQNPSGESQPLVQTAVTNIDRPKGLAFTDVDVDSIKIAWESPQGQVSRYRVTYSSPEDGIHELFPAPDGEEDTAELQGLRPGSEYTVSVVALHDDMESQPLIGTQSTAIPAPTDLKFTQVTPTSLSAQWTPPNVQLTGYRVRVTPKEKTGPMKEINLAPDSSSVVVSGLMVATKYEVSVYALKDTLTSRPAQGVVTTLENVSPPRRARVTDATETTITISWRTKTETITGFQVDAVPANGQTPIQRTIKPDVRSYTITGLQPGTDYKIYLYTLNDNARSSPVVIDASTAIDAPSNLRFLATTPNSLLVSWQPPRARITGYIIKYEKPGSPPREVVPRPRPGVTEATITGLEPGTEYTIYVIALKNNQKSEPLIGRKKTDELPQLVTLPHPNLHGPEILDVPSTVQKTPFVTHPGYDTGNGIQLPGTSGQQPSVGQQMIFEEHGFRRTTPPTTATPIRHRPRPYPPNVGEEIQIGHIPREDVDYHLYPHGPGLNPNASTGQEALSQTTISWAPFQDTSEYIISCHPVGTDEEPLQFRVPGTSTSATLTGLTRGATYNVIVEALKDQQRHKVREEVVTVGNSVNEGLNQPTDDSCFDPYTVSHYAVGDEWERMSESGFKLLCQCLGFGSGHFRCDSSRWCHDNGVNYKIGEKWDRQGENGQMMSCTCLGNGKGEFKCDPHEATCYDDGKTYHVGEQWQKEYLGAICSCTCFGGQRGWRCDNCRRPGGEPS
αVβ3(N339S) transiently expressed on HEK293T cells (human), sequence (P06756 31-1048, chain 1 of 2): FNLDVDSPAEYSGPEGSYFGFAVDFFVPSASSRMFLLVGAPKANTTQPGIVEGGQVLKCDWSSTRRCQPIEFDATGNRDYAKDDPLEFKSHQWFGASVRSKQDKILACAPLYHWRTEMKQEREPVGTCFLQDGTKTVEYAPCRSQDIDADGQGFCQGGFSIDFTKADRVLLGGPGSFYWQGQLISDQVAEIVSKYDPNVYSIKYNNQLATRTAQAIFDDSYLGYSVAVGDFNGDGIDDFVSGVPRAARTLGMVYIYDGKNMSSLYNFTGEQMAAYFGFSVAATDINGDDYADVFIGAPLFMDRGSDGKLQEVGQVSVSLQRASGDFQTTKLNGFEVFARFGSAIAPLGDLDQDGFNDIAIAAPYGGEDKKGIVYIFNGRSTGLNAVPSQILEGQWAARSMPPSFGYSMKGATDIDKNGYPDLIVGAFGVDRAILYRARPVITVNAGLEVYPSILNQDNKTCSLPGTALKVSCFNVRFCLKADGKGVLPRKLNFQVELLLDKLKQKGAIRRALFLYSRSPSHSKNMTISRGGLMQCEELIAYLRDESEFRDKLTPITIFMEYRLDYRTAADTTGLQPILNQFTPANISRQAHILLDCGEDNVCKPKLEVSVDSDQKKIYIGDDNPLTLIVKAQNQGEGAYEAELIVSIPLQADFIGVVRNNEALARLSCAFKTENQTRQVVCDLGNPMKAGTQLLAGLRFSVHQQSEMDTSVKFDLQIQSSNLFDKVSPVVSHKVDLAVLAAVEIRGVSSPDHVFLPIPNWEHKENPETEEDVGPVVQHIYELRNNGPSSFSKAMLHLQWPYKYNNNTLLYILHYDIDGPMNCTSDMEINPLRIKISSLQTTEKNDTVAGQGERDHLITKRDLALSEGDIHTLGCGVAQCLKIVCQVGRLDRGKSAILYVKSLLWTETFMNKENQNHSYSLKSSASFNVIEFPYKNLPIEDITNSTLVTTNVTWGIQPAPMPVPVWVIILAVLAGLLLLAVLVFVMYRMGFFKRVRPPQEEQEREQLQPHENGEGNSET
αVβ3(N339S) transiently expressed on HEK293T cells (human), sequence (P05106 27-788 N339S, chain 2 of 2, further chain): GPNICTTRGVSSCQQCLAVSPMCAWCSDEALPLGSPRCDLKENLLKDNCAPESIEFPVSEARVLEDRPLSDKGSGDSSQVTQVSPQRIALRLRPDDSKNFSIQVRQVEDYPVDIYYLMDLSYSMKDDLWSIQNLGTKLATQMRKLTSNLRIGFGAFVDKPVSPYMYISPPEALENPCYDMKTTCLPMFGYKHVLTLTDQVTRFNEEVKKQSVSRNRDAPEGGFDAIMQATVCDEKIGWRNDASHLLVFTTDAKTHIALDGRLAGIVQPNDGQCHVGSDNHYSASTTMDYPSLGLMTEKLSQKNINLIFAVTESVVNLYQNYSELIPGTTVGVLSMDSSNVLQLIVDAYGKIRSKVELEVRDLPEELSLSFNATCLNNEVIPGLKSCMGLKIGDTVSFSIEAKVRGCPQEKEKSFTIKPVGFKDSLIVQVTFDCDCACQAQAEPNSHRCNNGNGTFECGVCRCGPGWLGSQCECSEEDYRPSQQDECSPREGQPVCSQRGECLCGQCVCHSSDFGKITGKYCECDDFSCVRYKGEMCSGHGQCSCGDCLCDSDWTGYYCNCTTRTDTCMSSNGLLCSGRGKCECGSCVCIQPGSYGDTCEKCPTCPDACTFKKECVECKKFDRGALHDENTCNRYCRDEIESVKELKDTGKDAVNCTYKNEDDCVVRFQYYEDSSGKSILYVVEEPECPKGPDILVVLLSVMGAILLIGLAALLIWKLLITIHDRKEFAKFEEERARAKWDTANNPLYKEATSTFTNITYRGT
wild-type αVβ3 stably expressed in K562 cells (K562-αVβ3) (human), sequence (P06756 31-1048, chain 1 of 2): as the sequence (P06756 31-1048, chain 1 of 2) above
wild-type αVβ3 stably expressed in K562 cells (K562-αVβ3) (human), sequence (P05106 27-788, chain 2 of 2, further chain): as the sequence (P05106 27-788 N339S, chain 2 of 2, further chain) above, with S313N counted along it

On to “10th type III RGD-domain of wild-type fibronectin (wtFN10) (domain or fragment)”, for which, in assay [1], the fold increase of binding (MFI) in Mn2+ over Ca2+-Mg2+ is 10 fold. In assay [2], this substance displayed a fold increase of binding by the N339S mutation over wild-type αVβ3 of 6 fold. In addition, in assay [3], the AP5 epitope expression (flow cytometry, HEK293T) is 2 fold.
